Patent US12534748B2, “Engineered beta-subunit of tryptophan synthase for production of non-canonical amino acids” (California Institute of Technology, priority 2015, dated 2026)

Substrate: c1ccc2[nH]ccc2c1
Experiment: purified protein, by the assay type
Settings: pH 8.0

| Protein | Km (other: 75° C.) [µM] | Km (other: 60° C.) [µM] |
| --- | --- | --- |
| Pyrococcus furiosus TrpB variant M144T N166D (Table 6 prints N166T), SEQ ID NO: 20 (Pyrococcus furiosus DSM 3638; M144T/N166D) (protein) MWFGEFGGQYVPETLIEPLKELEKAYKRFKDDEEFNRQLNYYLKTWAGRPTPLYYAKRLTEKIGGAKIYLKREDLVHGGAHKTNNAIGQALLAKFMGKTRLIAETGAGQHGVATAMAGALLGMKVDIYMGAEDVERQKMNVFRTKLLGANVIPVNSGSRTLKDAIDEALRDWVATFEYTHYLIGSVVGPHPYPTIVRDFQSVIGREAKAQILEAEGQLPDVIVACVGGGSNAMGIFYPFVNDKKVKLVGVEAGGKGLESGKHSASLNAGQVGVFHGMLSYFLQDEEGQIKPTHSIAPGLDYPGVGPEHAYLKKIQRAEYVTVTDEEALKAFHELSRTEGIIPALESAHAVAYAMKLAKEMSRDEIIIVNLSGRGDKDLDIVLKVSGNVLEHHHHHH | 42 |  |
| Thermotoga maritima TrpB variant TmTrpB^0B2 (P14L, P19G, I69V, L274S, T292S) (Thermotoga maritima MSB8; I69V/L274S/P14L/P19G/T292S) (protein) MKGYFGPYGGQYVLEILMGALEELEAAYEEIMKDESFWKEFNDLLRDYAGRPTPLYFARRLSEKYGARVYLKREDLLHTGAHKINNAIGQVLLAKKMGKTRIIAETGAGQHGVATATAAALFGMECVIYMGEEDTIRQKPNVERMKLLGAKVVPVKSGSRTLKDAINEALRDWITNLQTTYYVIGSVVGPHPYPIIVRNFQKVIGEETKKQILEKEGRLPDYIVACVGGGSNAAGIFYPFIDSGVKLIGVEAGGEGLETGKHAASLLKGKIGYSHGSKTFVLQDDWGQVQVSHSVSAGLDYSGVGPEHAYWRETGKVLYDAVTDEEALDAFIELSRLEGIIPALESSHALAYLKKINIKGKVVVVNLSGRGDKDLESVLNHPYVRERIRLEHHHHHH | 72 |  |
| Archaeoglobus fulgidus TrpB variant AfTrpB^0B2 (P25L, E30G, I80V, F285S, T303S, T332A), SEQ ID NO: 22 (Archaeoglobus fulgidus DSM 4304; … (protein) MRCWLENLSGGRKMKFGEFGGRFVLEVLIGPLEELEKAYDRFKDDEEFKARLEYYLKSYAGRPTPLYFAENLSRELGVKVYLKREDLLHGGAHKINNTIGQALLAKFMGKKRVIAETGAGQHGVATAMAAALLGLEAEIYMGAEDYERQKMNVFRMELLGAKVTAVESGSRTLKDAINEALRDWVESFEHTHYLIGSVVGPHPFPTIVRDFQAVIGKEARRQIIEAEGGMPDAIIACVGGGSNAMGIFHPFLNDDVRLIGVEAGGEGIESGRHSASLTAGSKGVSHGMLSYFLQDEEGMMLDSHSVSAGLDYPGVGPEHAYLKETGRCEYVAVNDEEALRAFKTLSKLEGIIPALESAHAIAYAMKMAEEMQRDDVLVVNLSGRGDKDMDIVRRRLALEHHHHHH |  | 4.8 |
